# Experimental data published in patent US20240052051A1 (Regeneron, published 2024).
# B1: 69348 anti-hTfR scFv (VH-VK) (scFv)
# scFv: QVQLVESGGGVVQPGRSLRLSCAASGFTFTTYGMHWVRQAPGKGLEWVAVIWYDGSNKYYGDSVKGRFTISRDNSKNTLYLQMNSLRVDDTAVYYCTRTHGYTRSSDGFDYWGQGTLVTVSSGGGGSGGGGSGGGGSDIQMTQSPSSLSASVGDRVTITCRASQSIRNVLGWFQQKPGKAPQRLIYAASSLQSGVPSRFSGSGSGTEFTLTISSLQPEDFATYYCLQHNFYPLTFGGGTKVEIK
# notes: also called 69348 scFv (VH - VK) Format
# Target: T1, human transferrin receptor extracellular domain with hexahistidine-myc-myc tag (REGN2431) (human, UniProt P02786 89-760)
# T1 construct: also called hTFR-mmh; hmm.hTfRC
# T1 sequence (P02786 other isoform, or with tags, fused parts or gaps): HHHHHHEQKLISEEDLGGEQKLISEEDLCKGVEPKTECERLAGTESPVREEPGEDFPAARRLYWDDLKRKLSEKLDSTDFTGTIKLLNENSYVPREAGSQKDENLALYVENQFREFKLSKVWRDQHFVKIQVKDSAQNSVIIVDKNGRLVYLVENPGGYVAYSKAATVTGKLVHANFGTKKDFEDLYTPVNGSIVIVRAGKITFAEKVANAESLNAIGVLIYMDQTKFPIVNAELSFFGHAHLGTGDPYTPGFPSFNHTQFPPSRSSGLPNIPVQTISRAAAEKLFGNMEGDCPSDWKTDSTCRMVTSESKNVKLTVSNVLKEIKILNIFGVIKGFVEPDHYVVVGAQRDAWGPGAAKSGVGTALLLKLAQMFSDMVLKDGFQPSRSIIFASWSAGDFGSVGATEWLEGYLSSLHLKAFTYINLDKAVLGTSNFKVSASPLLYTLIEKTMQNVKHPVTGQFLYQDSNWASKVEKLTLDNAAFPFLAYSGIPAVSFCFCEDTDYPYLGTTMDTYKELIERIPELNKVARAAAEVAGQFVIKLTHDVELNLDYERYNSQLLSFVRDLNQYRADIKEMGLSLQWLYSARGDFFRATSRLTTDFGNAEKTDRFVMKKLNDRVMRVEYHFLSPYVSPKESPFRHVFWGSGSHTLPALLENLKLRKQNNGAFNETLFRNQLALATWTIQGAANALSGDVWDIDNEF
# Test: blocking ELISA: supernatant pre-mixed with 300 pM Hmm-hTFRC, hTFRC bound to immobilized human holo-Tf read
# Experimental: In the blocking assay, the anti-human Transferrin goat IgG polyclonal antibody (anti-hTf pAb) was passively absorbed at a concentration of 2 micrograms/mL in PBS on a 96-well microtiter plate overnight at 4° C. […] To the same plate, human holo-Tf was then added at a concentration of 1 micrograms/mL in PBS+0.5% BSA for 2 hours at room temperature. […] After a 1-hour incubation, the mixtures were transferred to the human holo-Tf microtiter plates. […] The plates were developed using TMB substrate solution according to the manufacturer's recommended procedure and absorbance at 450 nm was measured on a Victor™ Multilabel Plate Reader.
# The ability of the anti-TfR antibody to block human TFRC binding to human holo-Tf was evaluated using an ELISA-based blocking assay.
binder,measurement,value
B1,% Blocking,0%
